Test results from US20140322736.

Assays:
[1] = system: human mutant recombinant prethrombin-2
[2] = system: mouse mutant recombinant prethrombin-2

Row | Substance | protease activity (fluorescence of the cleaved fluorogenic substrate (p-tosyl-Gly-Pro-Arg)2-rhodamine 110 over time) [1] | protease activity (fluorescence of the cleaved fluorogenic substrate (p-tosyl-Gly-Pro-Arg)2-rhodamine 110 over time) [2] | cleavage of the proenzyme [2]
1 | wild type human α-thrombin (Sigma Aldrich) | in the presence of WT human α-thrombin, the protease activity increased considerably with time (FIG. 4, curves a, b), compared to the samples where only WT α-thrombin was added | in the presence of WT human α-thrombin, the protease activity increased considerably with time (FIG. 4, curves a, b), compared to the samples where only WT α-thrombin was added | –
2 | α-thrombin immobilized on agarose (Thrombin CleanCleave Kit, Sigma-Aldrich) | – | – | Mouse mutant prethrombin-2 was cleaved using Thrombin CleanCleave™ Kit
